The labels stand for the following.
B1: HDV Ribozyme (parent)
chain: GGCCGGCAUGGUCCCAGCCUCCUCGCUGGCGCCGGCUGGGCAACAUUCCGAGGGGACCGUCCCCUCGGUAAUGGCGAAUGGGACCCA

The variants in the data set derive from B1. Briefly: self-cleavage, relative activity (ratio to wild type); higher = more cleavage; co-transcriptional.
As for G1A C36A, the self-cleavage was 0.154. The figure for G1A C36G is 0.119; for G1A C49U it is 0. G1U G25U: the self-cleavage was 0.248. In the case of G1A U46G, the self-cleavage turned out to be 0.138. For G1A U46A, the self-cleavage was found to be 0.0755. The figure for G1U A43C is 0.425; for G1U A43U it is 0.225; for G1U A43G it is 0.147.

On to G1C A83U, for which the self-cleavage was 0.252.

As to G1C A83G, the self-cleavage was 0.151. Regarding G1A G10A, the self-cleavage was determined as 0.151. Regarding G1A G10C, the self-cleavage was 0.35. Take G1A G10U: the self-cleavage came to 0.153.

In the case of G1C G25A, the self-cleavage worked out at 0.0755.

G1C G25U: the self-cleavage was determined as 0.0665. As for G1U C4U, the self-cleavage came to 0.251. Turning to G1U C4A, the self-cleavage was found to be 0.277. As for G1A G80C, the self-cleavage stood at 0.119. As for G1C A51C, the self-cleavage is 0.133. For G1C A51G, the self-cleavage amounted to 0.396. With G1A G34A, the self-cleavage amounted to 0.136. As for G1A G34C, the figure is 0; as for G1U C86U, 0.212; as for G1U C86G, 0.289. Consider G1U G59C, for which the self-cleavage came to 0.277. As for G1U G59U, the figure is 0.451; as for G1U G59A, 0.442; as for G1U G28C, 0.185. As to G1U G28A, the self-cleavage turned out to be 0.292. With G1A C84A, the self-cleavage amounted to 0. The figure for G1A C84U is 0.229; for G1A C84G it is 0.0978. Turning to G1U U12C, the self-cleavage amounted to 0.499. G1U U12A: the self-cleavage turned out to be 0.434. With G1A G68C, the self-cleavage is 0.0978. As to G1A G68A, the self-cleavage came to 0.101. Take G1C A43U: the self-cleavage was found to be 0.135. The figure for G1C A43C is 0.332. As for G1C A8U, the figure is 0.0978; as for G1C A8C, 0. Consider G1A C32A, for which the self-cleavage was found to be 0.0386. For G1A C32G, the self-cleavage is 0.113. For the variant G1A C32U, the self-cleavage stood at 0.133.

Consider G1C C86G, for which the self-cleavage was 0.268. Take G1C C86A: the self-cleavage is 0.0978. G1U C36G: the self-cleavage came to 0.306. As for G1U C36U, the self-cleavage is 0.318. In the case of G1U C33G, the self-cleavage came to 0.248. The figure for G1U C33U is 0.436. With G1C G67C, the self-cleavage came out at 0.111. In the case of G1C G67A, the self-cleavage was determined as 0.0898. As to G1C G67U, the self-cleavage turned out to be 0.0739. In the case of G1C C49G, the self-cleavage was determined as 0.0898. As for G1C C49U, the figure is 0.145. As to G1U C3A, the self-cleavage is 0.654. The figure for G1U C3U is 0.696; for G1U G68C it is 0.431; for G1C C4G it is 0. As for G1U C21U, the self-cleavage is 0.348. G1U C21G: the self-cleavage is 0.312. For G1U C21A, the self-cleavage came to 0.397.

Turning to G1U A42C, the self-cleavage came out at 0.332. As for G1U A42G, the figure is 0.403; as for G1U A16G, 0.256. With G1U A16U, the self-cleavage turned out to be 0.262. In the case of G1U A16C, the self-cleavage was found to be 0.277. With G1C G74C, the self-cleavage was found to be 0. On to G1C G74A, for which the self-cleavage was determined as 0.0678. Take G1C C24G: the self-cleavage was 0.0462. As for G1C C24A, the figure is 0.142. Take G1A G81A: the self-cleavage stood at 0.0462. Regarding G1A G82C, the self-cleavage is 0.133.

Turning to G1C C19A, the self-cleavage was 0.201. On to G1C C19G, for which the self-cleavage came to 0. As to G1A G28A, the self-cleavage was 0.0332. On to G1A G38C, for which the self-cleavage is 0.0405.

As for G1C G5C, the self-cleavage came out at 0.

Take G1C C85A: the self-cleavage is 0.161. G1C U37C: the self-cleavage is 0.128. The figure for G1C U37G is 0; for G1C C21G it is 0; for G1C C21U it is 0. As for G1C C21A, the figure is 0. The figure for G1C C48A is 0.293; for G1C C75G it is 0.178. Consider G1C C75U, for which the self-cleavage worked out at 0.227. For G1U C75A, the self-cleavage is 0.277. As to G1U C75U, the self-cleavage was 0.321. Regarding G1U G50A, the self-cleavage was found to be 0.475.

With G1U G50C, the self-cleavage is 0.203. Take G1A G76U: the self-cleavage came to 0.185.

As to G1A G76A, the self-cleavage amounted to 0.462. As to G1A G76C, the self-cleavage stood at 0.185. As to G1C C62A, the self-cleavage is 0.101. Turning to G1C C62U, the self-cleavage was determined as 0.282. The figure for G1C C62G is 0.0831. For G1U G80U, the self-cleavage came out at 0.479. G1A C24U: the self-cleavage was 0.111. As for G1A C24A, the self-cleavage stood at 0.119. Consider G1A G5C, for which the self-cleavage came to 0. Turning to G1C C57G, the self-cleavage amounted to 0.222.

For G1C C57U, the self-cleavage worked out at 0.252. The figure for G1C C13A is 0.0386; for G1C G82U it is 0.095. On to G1C G82C, for which the self-cleavage stood at 0.0504. In the case of G1U C13A, the self-cleavage came to 0.321. Consider G1C A56U, for which the self-cleavage was 0.17. As for G1U C84A, the figure is 0.408; as for G1U G54U, 0.358. As for G1U G52U, the self-cleavage was determined as 0.372. As to G1U G52A, the self-cleavage turned out to be 0.356. Consider G1U G52C, for which the self-cleavage came to 0.332. As for G1C G68A, the figure is 0.158. The figure for G1U C62A is 0.248.

Take G1U C62G: the self-cleavage amounted to 0.391. Take G1U C62U: the self-cleavage stood at 0.443.

Turning to G1C C3G, the self-cleavage stood at 0.443. In the case of G1U C66U, the self-cleavage was 0.296. Consider G1C G6U, for which the self-cleavage was 0.217.

Take G1C G34U: the self-cleavage came out at 0.0692.

Regarding G1C G73A, the self-cleavage was 0.201. The figure for G1A C57A is 0.208; for G1A C57G it is 0; for G1C C30G it is 0.128. In the case of G1C C64A, the self-cleavage amounted to 0.231. Turning to G1C C64G, the self-cleavage amounted to 0.244. In the case of G1C C33G, the self-cleavage amounted to 0. As for G1C C33U, the figure is 0; as for G1A G73C, 0.0739; as for G1C G80U, 0.0484. Consider G1C G80A, for which the self-cleavage is 0.0405. On to G1C U9C, for which the self-cleavage worked out at 0.

For the variant G1C U9G, the self-cleavage was found to be 0.104.

Consider G1C C14A, for which the self-cleavage turned out to be 0.0811.

Turning to G1C C14G, the self-cleavage is 0.0615. G1C G39C: the self-cleavage was 0.0519. G1U A45C: the self-cleavage came out at 0.453. Consider G1U A45U, for which the self-cleavage is 0.441. Consider G1U A45G, for which the self-cleavage was determined as 0.291. Turning to G1U C24U, the self-cleavage worked out at 0.409.

With G1A U47G, the self-cleavage is 0. On to G1A U47C, for which the self-cleavage worked out at 0.128. As to G1A U47A, the self-cleavage amounted to 0.145. G1U G67A: the self-cleavage turned out to be 0.506. The figure for G1C U65A is 0. For the variant G1C U65G, the self-cleavage was 0.

Take G1U C58U: the self-cleavage came to 0.401.

As to G1U C58A, the self-cleavage was 0.237. Regarding G1U G39C, the self-cleavage came out at 0.397. For the variant G1U G39U, the self-cleavage came to 0.337. For the variant G1A C41U, the self-cleavage was 0.237. Turning to G1A C41A, the self-cleavage stood at 0.222.

For G1C C26A, the self-cleavage is 0.166. As for G1C C26G, the figure is 0.227; as for G1U G74U, 0.358. Consider G1U G74C, for which the self-cleavage was 0.262. Turning to G1U G74A, the self-cleavage came out at 0.288.

With G1A G29C, the self-cleavage came to 0.181. On to G1U G76C, for which the self-cleavage is 0.277. With G1U G76U, the self-cleavage amounted to 0.359. For G1A U60A, the self-cleavage stood at 0.185. As to G1A U27C, the self-cleavage stood at 0.119.

Consider G1A U27A, for which the self-cleavage worked out at 0. Consider G1A G25A, for which the self-cleavage came out at 0.0739.

Regarding G1A G25U, the self-cleavage was found to be 0.0462.

Turning to G1U C14U, the self-cleavage is 0.434.
